Measured values: publication PMC6858323, “Multiple conformations facilitate PilT function in the type IV pilus” (Nature Communications, 2019)

Tests used:
[1] = molecular target: PilB from Geobacter metallireducens (PilB^Gm) (Geobacter metallireducens); assay: cryo-EM structure; PilB^Gm 0.6 mg/ml without added nucleotide, 4 °C; 2D class averages and 7.8 Å 3D map, CCOCCO conformation
[2] = molecular target: PilT4 from Geobacter metallireducens (PilT^Gm) (Geobacter metallireducens GS-15); assay: crystal structure; PilT^Gm with 2 mM ATP and 2 mM MgCl2; 9% PEG4000, 100 mM MES pH 6, 200 mM MgCl2; 20 °C; 1.9 Å; CCCCCC conformation
[3] = molecular target: PilT4 from Geobacter metallireducens (PilT^Gm) (Geobacter metallireducens GS-15); assay: cryo-EM structure; PilT^Gm 0.5 mg/ml incubated 10 min at 4 °C with 1 mM MgCl2 plus 1 mM ATP; 4.4 Å map, CCCCCC conformation; 2D class averages also with 1 mM ATP plus 0.1 or 1 mM ADP
[4] = molecular target: PilT4 from Geobacter metallireducens (PilT^Gm) (Geobacter metallireducens GS-15); assay: crystal structure; PilT^Gm with 2 mM ANP and 2 mM MgCl2; 2% benzamidine-HCl, 100 mM HEPES-HCl pH 7.9, 200 mM ammonium acetate, 17.5% PEG3350; 20 °C; anisotropic 4.1, 6.7 and 4.0 Å; CCOCCO conformation
[5] = molecular target: PilT4 from Geobacter metallireducens (PilT^Gm) (Geobacter metallireducens GS-15); assay: cryo-EM structure; PilT^Gm 0.5 mg/ml without added nucleotide, 4 °C; untilted 2D class averages and 40° tilted 3D maps (OCOCOC 4.0 Å, OOCOOC 4.1 Å); 2D class averages also with 1 mM MgCl2 plus 0.1 or 1 mM ADP
[6] = molecular target: PilT4 from Geobacter metallireducens (PilT^Gm) (Geobacter metallireducens GS-15); assay: crystal structure; PilT^Gm without added nucleotide (partial-occupancy ADP, pH 7.1, 3.0 Å) or preincubated with Mg2+ and ATP and unbound nucleotide removed (full-occupancy ADP, pH 7.6); 11.5% PEG3350, 200 mM L-proline, 100 mM HEPES; 20 °C; OCOCOC conformation, pseudo-C3
[7] = molecular target: reductively methylated PilT4 from Geobacter metallireducens (methylated PilT^Gm) (Geobacter metallireducens GS-15); assay: crystal structure; methylated PilT^Gm, no added nucleotide; vapor diffusion 20 °C; 200 mM ammonium sulfate, 100 mM Bis-Tris-HCl pH 6.5, 25% PEG3350; 3.3 Å; OCOCOC conformation

Substance “PilB from Geobacter metallireducens (PilB^Gm) (enzyme)” has a stoichiometry N [1] of 6.
Substance “PilT4 from Geobacter metallireducens (PilT^Gm) (enzyme)” has a stoichiometry N [2] of 6, a stoichiometry N [3] of 6 and a stoichiometry N [4] of 6. It also gave a stoichiometry N [5] of 6 and a stoichiometry N [6] of 6.
In the case of “reductively methylated PilT4 from Geobacter metallireducens (methylated PilT^Gm) (enzyme)”, the stoichiometry N [7] is reported as 6.
